From article PMC12693692, “Benzodioxane-benzamides targeting bacterial cell division protein FtsZ potentially disrupt SlmA-mediated nucleoid occlusion and reversible biomolecular condensation” (International journal of biological macromolecules, 2025) come the findings set out here.

B1: FtsZ (E. coli cell division protein, tubulin-like GTPase) (natural protein, UniProt P0A9A6 1-383, looked up)
chain: MFEPMELTNDAVIKVIGVGGGGGNAVEHMVRERIEGVEFFAVNTDAQALRKTAVGQTIQIGSGITKGLGAGANPEVGRNAADEDRDALRAALEGADMVFIAAGMGGGTGTGAAPVVAEVAKDLGILTVAVVTKPFNFEGKKRMAFAEQGITELSKHVDSLITIPNDKLLKVLGRGISLLDAFGAANDVLKGAVQGIAELITRPGLMNVDFADVRTVMSEMGYAMMGSGVASGEDRAEEAAEMAISSPLLEDIDLSGARGVLVNITAGFDLRLDEFETVGNTIRAFASDNATVVIGTSLDPDMNDELRVTVVATGIGMDKRPEITLVTNKQVQQPVMDRYQQHGMAPLTQEQKPVAKVVNDNAPQTAKEPDYLDIPAFLRKQAD
modifications: tracer fraction only (10-50 nM in 10 uM unlabeled FtsZ): Alexa Fluor 488 succinimidyl ester at the amino groups, 0.4-0.5 mol of dye per mole of protein
notes: FtsZ, E. coli; it is kept as the same molecule; Polymers were triggered with GTP; also called FtsZ-GTP; FtsZ polymers

Data set [1] concerns the molecule itself. Briefly: fluorescence correlation spectroscopy; FtsZ 10 uM (10 nM FtsZ-Alexa 488 as tracer), with 2 mM GTP and regeneration system against no GTP; dilute solution buffer; self-association into polymers.
Data set [2] has as its target B1. Briefly: fluorescence polarisation; fluorescence anisotropy binding titration in solution: SlmA (1 uM) and SBS-Fl (10 nM) with increasing concentrations of FtsZ, right after 2 mM GTP; with or without 20 uM FZ95 or FZ100; 25 C; 50 mM Tris-HCl pH 7.5, 300 mM KCl, 5 mM MgCl2; 1:1 model, apparent parameters. To be noted: both partners purified. A general note: Polarisation of emitted light reports the rotation of a fluorescent probe.

B1: the binding result in data set [1] was “binds”.

B2: SlmA (E. coli nucleoid occlusion protein), bound to its DNA site SBS (natural protein, UniProt P0C093 1-198, looked up)
chain: MAEKQTAKRNRREEILQSLALMLESSDGSQRITTAKLAASVGVSEAALYRHFPSKTRMFDSLIEFIEDSLITRINLILKDEKDTTARLRLIVLLLLGFGERNPGLTRILTGHALMFEQDRLQGRINQLFERIEAQLRQVLREKRMREGEGYTTDETLLASQILAFCEGMLSRFVRSEFKYRPTDDFDARWPLIAAQLQ
notes: SlmA, E. coli; the DNA is not a chain; also called SlmA-SBS; SlmA nucleoprotein complexes
Take B2: in data set [2], the binding result is reported as “binds”.
